± gives the standard deviation of the averaged measurements.

The results in this text go back to the supplement of paper PMC10724198.

This data set has as its system Saccharomyces cerevisiae. In words: protein stability index of tFT-peptide fusion (C-terminal peptide) (PSI (0-1 scale)); higher = more stable (slower turnover). Conditions: temperature: 30 C. As for the experimental part:
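MPS profiling in S. cerevisiae of the yeast C-terminome library: the last 12 aa of each annotated ORF are fused to the C-terminus of a sfGFP-mCherry timer, after a GGGS linker. Cells are FACS-sorted into 8 mCherry/sfGFP bins and deep-sequenced. PSI runs from 0 (unstable) to 1 (stable); wild type and das1Δ backgrounds, two technical replicates each.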

Setting [1] is: genetic background: das1 deletion.

For “CNLFSERKPVNH [YGL188C-A C-terminal 12 aa]”, the protein stability index under setting [1] was found to be 0.6966 ± 0.0021 and the protein stability index (genetic background: wild type) stood at 0.691 ± 0.011.
In the same order, the values of CSGIPSGSGASC [PGU1 C-terminal 12 aa] are 0.691 ± 0.011 and 0.673 ± 0.076.
With CWMLWLQDRPVC [YBL112C C-terminal 12 aa], the protein stability index is, setting by setting: under setting [1], 0.627 ± 0.017; (genetic background: wild type) 0.625 ± 0.02.
In the same order, the values of CYQDYNHDHRSH [OSW2 C-terminal 12 aa] are 0.7147 ± 0.0055 and 0.6835 ± 0.0018.
The sequence DAKNANEKNKTY [PIS1 C-terminal 12 aa] showed a protein stability index under setting [1] of 0.687 ± 0.035 and a protein stability index (genetic background: wild type) of 0.42 ± 0.033.
In the same order, the values of DATLYLGRFLPH [PEF1 C-terminal 12 aa] are 0.70773 ± 2.5e-05 and 0.667 ± 0.01.
With DDCLIELPNGNI [RRN9 C-terminal 12 aa], the protein stability index by setting is: under setting [1], 0.6888 ± 0.0021; (genetic background: wild type) 0.703 ± 0.041.
In the same order, the values of DDGIATYNNTQG [KNS1 C-terminal 12 aa] are 0.693 ± 0.03 and 0.72 ± 0.027.
For DDILSHGFEPLA [HTC1 C-terminal 12 aa], the protein stability index under setting [1] is 0.7177 ± 0.0033 and the protein stability index (genetic background: wild type) stood at 0.706 ± 0.027.
The like results for DDKFRRSYDVKK [ERG13 C-terminal 12 aa] were, in that order, 0.731 ± 0.026 and 0.753 ± 0.12.
The like results for DDTVQFMRRALE [EAF5 C-terminal 12 aa] were, in that order, 0.665 ± 0.045 and 0.719 ± 0.044.
Consider DEFWTDLFMNDI [WAR1 C-terminal 12 aa], for which the protein stability index worked out at 0.77 ± 0.0079 under setting [1] and 0.757 ± 0.036 (genetic background: wild type).
For the sequence DEQKHNENENSR [RPO21 C-terminal 12 aa], the protein stability index by setting is: under setting [1], 0.693 ± 0.022; (genetic background: wild type) 0.708 ± 0.021.
The like results for DESVDMNVGISY [YCL046W C-terminal 12 aa] were, in that order, 0.721 ± 0.0092 and 0.718 ± 0.035.
The like results for DETIKLKDKKIK [MRPL6 C-terminal 12 aa] were, in that order, 0.714 ± 0.012 and 0.655 ± 0.028.
In the same order, the values of DFFREVKYGKKQ [ODC1 C-terminal 12 aa] are 0.7097 ± 0.0027 and 0.72329 ± 0.00028.
As to “DFFYFFQGPFVL [YOR072W-B C-terminal 12 aa]”, the protein stability index by setting is: under setting [1], 0.721 ± 0.013; (genetic background: wild type) 0.731 ± 0.044.
In the same order, the values of DGGWGNRGRSNY [DBP2 C-terminal 12 aa] are 0.701 ± 0.01 and 0.667 ± 0.05.
In the same order, the values of DGKIKIWKISRN [GID7 C-terminal 12 aa] are 0.701 ± 0.021 and 0.711 ± 0.086.
The like results for DGLLKNVWSYSR [RPS21A C-terminal 12 aa] were, in that order, 0.7161 ± 0.0069 and 0.7137 ± 0.0025.
As to DGPKFTFKRRKG [XRS2 C-terminal 12 aa], the protein stability index is 0.713 ± 0.027 under setting [1] and 0.778 ± 0.041 (genetic background: wild type).
In the same order, the values of DGWIPTRTDDVK [TAD1 C-terminal 12 aa] are 0.703 ± 0.008 and 0.707 ± 0.094.
The like results for DGYPKDNEDIDP [MAL13 C-terminal 12 aa] were, in that order, 0.70018 ± 0.0004 and 0.708 ± 0.043.
The like results for DIEVDHTKSTDP [DPB3 C-terminal 12 aa] were, in that order, 0.6917 ± 0.0038 and 0.676 ± 0.018.
Sequence DILSQIIESCWV [YNL174W C-terminal 12 aa] gave a protein stability index under setting [1] of 0.654 ± 0.0069 and a protein stability index (genetic background: wild type) of 0.705 ± 0.083.
In the same order, the values of DIMVFEISNCRV [HIS1 C-terminal 12 aa] are 0.6816 ± 0.0057 and 0.73 ± 0.052.
In the same order, the values of DIPRSNVYGSLI [SCY1 C-terminal 12 aa] are 0.7131 ± 0.0063 and 0.672 ± 0.044.
In the same order, the values of DITYDDYKSIDF [SUT1 C-terminal 12 aa] are 0.694 ± 0.024 and 0.703 ± 0.095.
Turning to DLEMEVIAVEKN [MMF1 C-terminal 12 aa], the protein stability index by setting is: under setting [1], 0.681 ± 0.0085; (genetic background: wild type) 0.674 ± 0.034.
In the same order, the values of DLKKLIWNEIFS [FUS3 C-terminal 12 aa] are 0.707 ± 0.021 and 0.684 ± 0.027.
The like results for DLQSLIESNGFA [PFK27 C-terminal 12 aa] were, in that order, 0.689 ± 0.021 and 0.689 ± 0.026.
In the same order, the values of DMLYDELMKTME [KSS1 C-terminal 12 aa] are 0.7032 ± 0.00096 and 0.666 ± 0.022.
As to DNNDLAKSSSQK [CMI7 C-terminal 12 aa], the protein stability index is, setting by setting: under setting [1], 0.7059 ± 0.0068; (genetic background: wild type) 0.66 ± 0.048.
In the same order, the values of DNNTVTANPTAR [YJR012C C-terminal 12 aa] are 0.7033 ± 0.0028 and 0.6523 ± 0.003.
The like results for DRCKEAVDHLMS [ISM1 C-terminal 12 aa] were, in that order, 0.686 ± 0.011 and 0.70544 ± 0.00054.
In the same order, the values of DRIAAQTLEEDE [RPS19A C-terminal 12 aa] are 0.687 ± 0.031 and 0.693 ± 0.05.
Take DSDLFFVAEAIS [YIL032C C-terminal 12 aa]: the protein stability index is, setting by setting: under setting [1], 0.7373 ± 0.0022; (genetic background: wild type) 0.703 ± 0.022.
As to DSFVEFWGRILY [PUL4 C-terminal 12 aa], the protein stability index came out at 0.704 ± 0.033 under setting [1] and 0.6623 ± 0.0034 (genetic background: wild type).
In the same order, the values of DSVIVVLKTPVE [SMD2 C-terminal 12 aa] are 0.67383 ± 0.00026 and 0.658 ± 0.041.
The like results for DTDGMQDQSSNI [IVY1 C-terminal 12 aa] were, in that order, 0.693 ± 0.019 and 0.679 ± 0.019.
In the same order, the values of DVDLTKSGGFKT [CKB2 C-terminal 12 aa] are 0.67664 ± 0.00023 and 0.714 ± 0.058.
Turning to DVHSKIEKQLGI [UMP1 C-terminal 12 aa], the protein stability index reads like this: under setting [1], 0.7202 ± 0.0061; (genetic background: wild type) 0.697 ± 0.017.
For DWVSHGGDKLDL [RDL1 C-terminal 12 aa], the protein stability index under setting [1] was 0.703 ± 0.042 and the protein stability index (genetic background: wild type) came to 0.704 ± 0.012.
As for EAAKKSEKKSKK [RPL34B C-terminal 12 aa], the protein stability index is, setting by setting: under setting [1], 0.702 ± 0.015; (genetic background: wild type) 0.706 ± 0.042.
EAQTSRAKNELS [PHD1 C-terminal 12 aa]: the protein stability index came out at 0.6855 ± 0.004 under setting [1] and 0.575 ± 0.011 (genetic background: wild type).
Turning to EAVKNDDIQIFG [BFR2 C-terminal 12 aa], the protein stability index is, setting by setting: under setting [1], 0.6921 ± 0.0018; (genetic background: wild type) 0.722 ± 0.031.
In the same order, the values of EDADNDNDYDHE [SAP155 C-terminal 12 aa] are 0.677 ± 0.035 and 0.682 ± 0.0061.
The like results for EDHRDISGKDVN [UBP1 C-terminal 12 aa] were, in that order, 0.68575 ± 0.0005 and 0.687 ± 0.033.
The like results for EDLDADGDHKLV [TUB4 C-terminal 12 aa] were, in that order, 0.6839 ± 0.0032 and 0.672 ± 0.0083.
EDLDSDLFSEVE [SSF1 C-terminal 12 aa]: the protein stability index is, setting by setting: under setting [1], 0.682 ± 0.02; (genetic background: wild type) 0.732 ± 0.027.
The like results for EEEKRHGINLKC [GUP2 C-terminal 12 aa] were, in that order, 0.6905 ± 0.004 and 0.687 ± 0.045.
Consider EEFINKLVKAMN [RPL7B C-terminal 12 aa], for which the protein stability index is, setting by setting: under setting [1], 0.649 ± 0.012; (genetic background: wild type) 0.6163 ± 0.0019.
The like results for EEGIDPSTYLNN [SUB2 C-terminal 12 aa] were, in that order, 0.709 ± 0.033 and 0.684 ± 0.014.
In the same order, the values of EEHHFYREHIFT [OCA4 C-terminal 12 aa] are 0.7231 ± 0.0018 and 0.7118 ± 0.0058.
In the same order, the values of EEKTKKEKSLLQ [NPP2 C-terminal 12 aa] are 0.7035 ± 0.0011 and 0.726 ± 0.072.
Regarding “EELPSDIATLLN [YKR059W; YJL138C C-terminal 12 aa]”, the protein stability index was found to be 0.7021 ± 0.00081 under setting [1] and 0.716 ± 0.031 (genetic background: wild type).
Take EESDSPESTAFY [PMC1 C-terminal 12 aa]: the protein stability index under setting [1] is 0.699 ± 0.01 and the protein stability index (genetic background: wild type) amounted to 0.6671 ± 0.0055.
The like results for EETEKKLKNLKL [YRB30 C-terminal 12 aa] were, in that order, 0.703 ± 0.029 and 0.684 ± 0.037.
On to EEVLEETKEKVE [PRT1 C-terminal 12 aa], for which the protein stability index reads like this: under setting [1], 0.689 ± 0.034; (genetic background: wild type) 0.685 ± 0.013.
In the same order, the values of EEWSSKFGSNGS [YTA6 C-terminal 12 aa] are 0.7431 ± 0.0031 and 0.725 ± 0.014.
The like results for EFLQIMKARISK [SEC24 C-terminal 12 aa] were, in that order, 0.686 ± 0.011 and 0.716 ± 0.048.
In the same order, the values of “EGRGYQQIHKLS [YHR139C-A C-terminal 12 aa]” are 0.721 ± 0.018 and 0.253 ± 0.0035.
Sequence EGSAFKKQKHYR [NOP9 C-terminal 12 aa] gave a protein stability index under setting [1] of 0.703 ± 0.0097 and a protein stability index (genetic background: wild type) of 0.701 ± 0.012.
For the sequence “EIALRKSGAVGS [YMR008C-A C-terminal 12 aa]”, the protein stability index under setting [1] is 0.689 ± 0.008 and the protein stability index (genetic background: wild type) was 0.6727 ± 0.0038.
The like results for “EIGGLLLQSFYN [YPL119C-A C-terminal 12 aa]” were, in that order, 0.687 ± 0.039 and 0.7378 ± 0.0018.
Take EIGHMYQKIKKS [MNN11 C-terminal 12 aa]: the protein stability index by setting is: under setting [1], 0.721 ± 0.0077; (genetic background: wild type) 0.317 ± 0.014.
EIKCCHNGRALK [SAT4 C-terminal 12 aa]: the protein stability index is, setting by setting: under setting [1], 0.668 ± 0.023; (genetic background: wild type) 0.697 ± 0.06.
